Laboratory results as given in patent US20070014786A1 (RINAT NEUROSCIENCE, published 2007).
One block for each binder: values may come before it.

How the values were obtained:
[1] = target: T1, human trkC (human, UniProt Q16288 32-429, limits assumed); assay: BIAcore (SPR); format not stated
T1 construct: also called htrkC

[2] = target: rat trkC (rat, UniProt Q03351 32-429, limits assumed); assay: BIAcore (SPR); format not stated; rat trkC
[3] = target: T1, human trkC; assay: BIAcore (SPR); format not stated; human trkC

Kd [1]: ~40 nM
B1: mouse anti-trkC agonist monoclonal antibody 2256 (antibody, V domains shown)
VH: QVQLQQPGAELVKPGASVKLSCKASGYTFTSYWMHWVKQRPGQGLEWIGEIYPSNGRTNYNEKFKSKATLTVDKSSSTAYMQLSSLTSEDSAVYYCARKYYYGNSYRSWYFDVWGAGTTLTVS
VL: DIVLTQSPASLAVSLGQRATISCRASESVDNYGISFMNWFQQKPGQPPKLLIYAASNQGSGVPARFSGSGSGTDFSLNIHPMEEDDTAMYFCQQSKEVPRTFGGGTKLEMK

Kd [2]: ~19 nM
Kd [3]: ~0.28 nM
B2: humanized anti-trkC agonist antibody A5 (antibody, V domains shown)
VH: QVQLVQSGAEVKKPGASVKVSCKASGYTFTSYRIHWVRQAPGQGLEWMGEIYPSNARTNYNEKFKSRVTMTRDTSTSTVYMELSSLRSEDTAVYYCARKYYYGNTRRSWYFDVWGQGTTVTVS
VL: DIQMTQSPSSLSASVGDRVTITCRASESIDNYGISFLAWYQQKPGKAPKLLIYAASNRGSGVPSRFSGSGSGTDFTFTISSLQPEDIATYYCQQSKTVPRTFGQGTKLEIKR
